Assay results as given in the nanobody polyreactivity screen of Harvey et al. (2022).

Experiment: yeast display, Sf9 membrane polyspecificity reagent, FACS + sequencing; frameworks hold sequencing errors
How it was run: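 Nanobodies came from a synthetic yeast display library in Saccharomyces cerevisiae BJ5465, induced with galactose for 36–48 hours and stained for 1 hour at 4 °C with 10% biotinylated, detergent-solubilized Sf9 membrane reagent. Cells were enriched on streptavidin microbeads and then FACS-sorted, with low and high (top ~1%) gates set on anti-HA fluorescence for expression and streptavidin fluorescence for reagent binding. Each polyreactivity label reflects the gate a clone came from. Genes were amplified by colony PCR, sequenced by MiSeq 2 × 250 and filtered by CDR length.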

| Sequence | polyreactivity (PSR sort gate) |
| --- | --- |
| QVQLVESGGGLVQAGGSLRISCAASGFTFNANAMGWYRQAPGNERELVAAISLSGGRTYYADSVKGRFTISRDNAKNTVYLQMNSLKPEDTAVYYCAASPDGSFRRFSRVVSGDYWGQGTQVTVSS | high polyreactivity |
| QVQLVESGGGLVQAGGSLRISCAASGFTFNKYAMGWYRQAPGKERELVAALTVSGSRTYYADSVKGRFTISRDNAKNTVYLQMNSLKPEDTAVYYCAARKWYYYLRPWTSVGGYYWGQGTQVTVSS | high polyreactivity |
| QVQLVESGGGLVQAGGSLRISCAASGFTFVSNDMGWYRQAPGKERELVAAISQGGGSTYYADSVKGRFTISRDNAKNTVYLQMNSLKPEDTAVYYCAADIWARYYFWGFEHDYWGQGTQVTVSS | low polyreactivity |
| QVQLVESGGGLVQAGGSLRISCAASGFTSTYYAMGWYRPAPGTERELVAAITSSGTRTYYADSVKGRFTISRDIAKKTGYLQMNSLKPEDTAVYYCNASHRKGMYYWGLGTQVTVSS | high polyreactivity |
| QVQLVESGGGLVQAGGSLRISCAASGFTYRKNAMGWDRQAPGKERELVAAITQSSGRTYYADTVKGRFTISRDNAKNTVYLQMNSLKPEDTAVYYCAARGVWPEYDYWGQGTQVNVSS | low polyreactivity |
| QVQLVESGGGLVQAGGSLRISCAASGGTFLYYAMGWYRQAPGKERELVAAISRGGSTHYADSVKGRFTISRDNAKNTVYLQMNSLKPEDTAVYYCAVDGGEFSSYGYWGQGTQVTVSS | low polyreactivity |
| QVQLVESGGGLVQAGGSLRISCAASGIIFPQYTMGWYRPAPGKERELVAVITSGGSTYYADSVKGRFTISRDNAKNTVYLQMNSLNPEDTAVYYCAAETETYWWTFITREYDYWGQGTQVTVSS | high polyreactivity |
| QVQLVESGGGLVQAGGSLRISCAASGIIFYTYVMGWYRQAPGKEREFVAGISTSGGRTDYADSVKGRFTISRDNAKNTVYLQMNSLKPEDTAVYYCNADYWQWYSYWYDYWGQGTQVTVSS | high polyreactivity |
| QVQLVESGGGLVQAGGSLRISCAASGINFSVNAMGWYRQAPGKERELVAAITYSGGSTYYADSVKGRFTISRDNAKNTVYLQMNSLKPEDTAVYYCAAETYSSGEWYDYWGQGTQVTVSS | high polyreactivity |
| QVQLVESGGGLVQAGGSLRISCAASGITFVYYDMAWYRQAPGKDSELVAAISGGGSTNYADSVKGRFTISRDNAKNTVYLQRKSLKPEDTAVYYCNAELYYGDEGDSWGQGTLVTVSS | low polyreactivity |
| QVQLVESGGGLVQAGGSLRISCAASGITFYRYAMGWYRQAPGKEREFVAAINYGGSSTRYADSVKGRFTISRDNAKITVYLQMNSLKPEDTAVYYCAKVELARVEYDYWGQGTQVTVSS | low polyreactivity |
| QVQLVESGGGLVQAGGSLRISCAASGLTFFRNAIGWYRQATGKERELVATITSTSSTNYADSVKVRFTISRDNSKNTVYLQMNSLKPEDTAVYYCAARTVGRKAGFDYWGQGTQVTVSS | high polyreactivity |
| QVQLVESGGGLVQAGGSLRISCAASGLTFQYNAMGWYRQAPGKERELVAAISSSGGSTYYADSVKGRFTISRDNAKNTVYLQMNSLKPEDTAVYYCNAYSQSWNFYGDGDYWVQGTQVTVSS | low polyreactivity |
| QVQLVESGGGLVQAGGSLRISCAASGNTVNDYTMGWYRQEPGKERELVAAIRSGGRTYYADSVKGRFTISRDNAKNTVYLQMNSLKPEDTAVYYCAALAVTYRYDYWGQGTQVTVSS | high polyreactivity |
| QVQLVESGGGLVQAGGSLRISCAASGRIFARNAMGSYRQAPGKERELVATIRVGGGSTYYADSVTGRFTISRDNAKNTVYLQMNSLKPEDTSVYYCAVRQLYSYPGDRRGYYWGQGTQVTVSS | low polyreactivity |
| QVQLVESGGGLVQAGGSLRISCAASGRIFRVNGMGWSRQEPGKESELVAAIRRSGGSTYYADSVKGRFTISRDYAKKSVYLQMNSLKPEDTAVYFCAAAVRQSSYTRYDSWGQGTQVTVSS | high polyreactivity |
| QVQLVESGGGLVQAGGSLRISCAASGRIFSGYAMGWYRQAPGKERELVAAITSGGSTNYADSVKGRFTISRDNAKNTVYLQMNSLKPEDTAVYYCAADSREVSTTAYYYWGQGTQVTVSS | low polyreactivity |
| QVQLVESGGGLVQAGGSLRISCAASGRILARNAMGWYRQAPGKERDLVATITWTDGSTYYADSVKGRFTISRDNAKNTVYLQMNSLKPEDTAVYYCDADLPGYWLPTVPKNYGDYWGQGTQVTVSS | low polyreactivity |
| QVQLVESGGGLVQAGGSLRISCAASGRTFARYAMGWYRQAPGKERELVAAISRSGSTYYADSVKGRFTISRDNAKNTVYLQMNSLKPEDTAVYFCAKDTRFAGSYKYYYWGQGTQVTVSS | high polyreactivity |
| QVQLVESGGGLVQAGGSLRISCAASGRTFGRYAMEWYRQAPGKERELVAAISWSGGSTYYADSVKGRFTISRDNAKNTVYLQMNSLKPEATAVYYCAAVTTDGVYAFDYWGQGTQVTVSS | low polyreactivity |
| QVQLVESGGGLVQAGGSLRISCAASGRTFLSNAMGWYRQAPGKERELVAAISNGDNTYYADSVKGRFTISRDNAKNTVYLQMNSLKPEDTAVYYCAADQYWSWIYYPVVEYDYWGQGTQVTVSS | low polyreactivity |
| QVQLVESGGGLVQAGGSLRISCAASGRTFWYYAKGWDRQAPGKEREFVAAISWSGGSTYYADSVKGRFTISRDNAKNTVYLQMNSLKPEDTAVSYCAADRYDSSQFYYWGQGTQVTVSS | low polyreactivity |

| Sequence | polyreactivity (PSR sort gate) |
| --- | --- |
| QVQLVESGGGLVQAGGSLRISCAASGRTFYSYAMGWYRQAPGKERELVAAITWRASTYYADSVKGRFTISRDNAKNTVYLQMNSLKPEDTAVYYCAVRDYRPRYYTFLYNSPYDYWGQGTQVTVSS | high polyreactivity |
| QVQLVESGGGLVQAGGSLRISCAASGRTFYYYAMGWYRQAPGKEREFVARITSSGGSTSYADSVKGRFTISRDNAKNTVYLQMNSLKPEDTAVYYFNAVSTYTSDDYDYWGQGSQVTVSS | high polyreactivity |
| QVQLVESGGGLVQAGGSLRISCAASGRTFYYYVMGWYRQAPGKERELVAAISRGGRTYYADSVKGRFTISRDYAKNTVYLQMNSLKPEDTAVYSCNAVPRKSRHRYDYWGQGTQVTVSS | high polyreactivity |
| QVQLVESGGGLVQAGGSLRISCAASGRTLFNKARGRYRQAPGKERELVAAINWSGTSTYYADSVKGRFTISRDNAKNTVYLQMNSLKPEDTAVYYCAARYSTVSTRRKPYNYWGQGTQVTVSS | high polyreactivity |
| QVQLVESGGGLVQAGGSLRISCAASGRTLGAYALGWSRQAPGKERELVAVISRRGGSTYYADSVKGRFTISRVNAKNTVYLQMNSLKPEDSAVYYCARTTLLYRTLSPGEYWGQGTQVTVSS | high polyreactivity |
| QVQLVESGGGLVQAGGSLRISCAASGSICYYYGMGWYRQAPGKERELVAGISSRGGRTYYADSVKGRFTISRDNAKNTVYLQMNSLKPEDTAVYYGAADRYYYAYRYDPSGYWGQGTQVTVSS | low polyreactivity |
| QVQLVESGGGLVQAGGSLRISCAASGSIFASNAMGWYRQAPGKEREFVAAITWRTDRTYYADSVKGRFTISRDNAKNTVYLQMNSLKPEDTAVYYCAADTWFYRFYYWGQGTQVTVSS | high polyreactivity |
| QVQLVESGGGLVQAGGSLRISCAASGSIFDLNPMGGYRQAPGKERELVAAISSGGGTYYADSVKGRFTISRDNAKNTVYLQMNRLIPEDTAVYYCIRVTRWTSNYWGQCTQVTVSS | high polyreactivity |
| QVQLVESGGGLVQAGGSLRISCAASGSIFDRNAMGWYRQAPGKERELVAGISSGGGTNYADSVKGRFTISRDNAKNTVYFQMNSLKPEDTAVYYCAVYRYLSNRVKYDYWGQGTQVTVSS | low polyreactivity |
| QVQLVESGGGLVQAGGSLRISCAASGSIFGYYVMGWYRQAPGKERELVAAITGSVGDTYYADSVKGRFTISRDNAKNTVYLQMNSLKPVDTAVYYCNASNISPFRLLRSPMDYCGQGTQVTVSS | low polyreactivity |
| QVQLVESGGGLVQAGGSLRISCAASGSIFLIFAMGWYRQSPGKERELVAAITQRGGSTYYADSVKGRFTISRDNAKNTVYFQMDSLKPEDTAVYYCNARRYVLRYNRFYYWGQGTQVTVSS | high polyreactivity |
| QVQLVESGGGLVQAGGSLRISCAASGSIFWANAMGWYRQAPWKERELVAAISSSGGRTYYADSVKGRFTISRDNAKNTVYLQMNSLKPEDSAVYDCNKLRLAYYEQGDYWGQGTQVNVSS | high polyreactivity |
| QVQLVESGGGLVQAGGSLRISCAASGSIFYGNAMGWYRQAPGKERELVAAISKRGGSTYYADSVKGRFTISRDNAKNTVYLQMNSLKPEDTAVYYCAKATAGHTEYYYWGQGTQVTVSS | high polyreactivity |
| QVQLVESGGGLVQAGGSLRISCAASGSIFYQYAMGWYRQAPGKERELVAGITWSGGSTYYADSVKGRFTISRDNAKNTVYLQMNSLKPEDSAVYYCARRYRGGYFWGQGTQVTVSS | high polyreactivity |
| QVQLVESGGGLVQAGGSLRISCAASGSILGLYAMGWYRQAPGKERELVAAITYRGGRTDYADSVKGRFTISRDNAKNTVYLQMNSLKPEDTAVYYCAAGYLPRPRYSTSYLYYYWGQGTQVTVSS | high polyreactivity |
| QVQLVESGGGLVQAGGSLRISCAASGSISSDNVMGWYRQAPGKERELVAAISSGTSTHYADSVKGSFTISRDNAKNTVYLQMNSLNQEDTAVYYCAAYFYRQYLYFLYEYDYWGQGTQVTVSS | low polyreactivity |
| QVQLVESGGGLVQAGGSLRISCAASGSIVYPYAMGWYRQAPGKERELVAAISYSGGSTYYADSVKGSFTISRDNAKNTVYLQMNSLKPEDTAVYYCNVYAGQYGMNYWGQGTQVTVSS | high polyreactivity |
| QVQLVESGGGLVQAGGSLRISCAASGSNFTRYAMGWYRQAPGKERELVAAISNRGGRTYYADSVKGRFTISRDNAKNTVYLQMNSLKPEDTGVYYCNAATTRRIPQSDNYWGQGTQVTVSS | high polyreactivity |
| QVQLVESGGGLVQAGGSLRISCAASGSPIWNYVMRWYRKAPGKVRDLVAAISIVGSTYYADSVKGRFTSSRDNAKNTVYFELNILKPEDTAVNYCNAGYFGGSNASKVRLSYDHWGQGTDVTVSS | low polyreactivity |
| QVQLVESGGGLVQAGGSLRISCAASGSTFEVNAMGWYRQAPGKERELVAAISYRGTSTYYADSVKGRFTISRDNAKNTVYLQMNSLKPEDNAVYYCAAEWYDWYWEYDSWGQGTQVTVSS | high polyreactivity |
| QVQLVESGGGLVQAGGSLRISCAASGSTFEYYAMGWYRQAPGKERELVATISIDGRTNYADSVKGRFTISRDNAKKTVYLQMNSLKPEDTAVYYCAARPYWRHRYDYWGQGTQVTVSS | low polyreactivity |
